Here are results for 1 molecule from patent US20070286858A1.

This experiment deals with murine RAGE-Fc (mouse) (UniProt Q62151). In words: method not given.
Chain of murine RAGE-Fc (mouse) (Q62151 other isoform, or with tags, fused parts or gaps, form in doubt): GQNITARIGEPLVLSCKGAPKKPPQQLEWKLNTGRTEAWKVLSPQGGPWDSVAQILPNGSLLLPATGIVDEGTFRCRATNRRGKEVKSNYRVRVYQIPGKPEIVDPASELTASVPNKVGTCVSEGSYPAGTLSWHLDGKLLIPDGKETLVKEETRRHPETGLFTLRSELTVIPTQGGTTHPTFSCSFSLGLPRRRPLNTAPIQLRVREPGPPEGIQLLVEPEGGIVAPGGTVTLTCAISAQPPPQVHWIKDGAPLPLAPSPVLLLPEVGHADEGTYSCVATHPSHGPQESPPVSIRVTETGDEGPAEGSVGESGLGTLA

B1: XT-M4 (antibody, rat IgG2b, V domains shown)
VH: EVQLVESGGGLVQPGRSLKLSCVVSGFTFNNYWMTWIRQTPGKGLEWVASINNSGDNTYYPDSVKDRFTISRDNAKSTLYLQMNSLRSEDTATYYCTRGGDITTGFDYWGQGVMVTVSS
VL: DIQMTQSPSSMSVSLGDTITITCRASQDVGIYVNWFQQKPGKSPRRMIYRATNLADGVPSRFSGSRSGSIYSLTISSLESEDVADYHCLEFDEHPLTFGSGTKVEIK
As usually defined, the Kd is a measure of binding affinity in units of concentration. Low readings indicate a tighter complex, high ones a looser complex. On to B1, for which the Kd worked out at 0.3 nM.
